Molecular target: T1, carboxyterminal peptide of PD-L1 (SEQ ID NO: 1, RLRKGRMMDVKKCGIQDTNSKKQSDTHLEET) (human)
T1 construct: The immunogen was the KLH-coupled peptide; also called immunogen
T1 peptide: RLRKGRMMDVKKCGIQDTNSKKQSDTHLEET
Experiment: ELISA, wells coated with the peptide immunogen

binding result: binds
B1: inventive antibody clone MKP1A07310 (rabbit monoclonal recombinant anti-PD-L1 antibody) (antibody, V domains shown)
VH: QEQLVESGGGLVTPGGSLTLTCTVSTIDLSTFAISWVRQAPGKGLEWIGTINTDLTTYYVNWAKGRFTISKTSSTTVDLKMTGLTIEDTATYFCARKLFGNGNVWGPGTLVTVSS
VL: QVLTQTPSPVSASVGSTVTINCQASQSLHRNNYLSWFQQKPGQPPKQLIYQASTLASGVSSRFSGSGSGTQFTLTISDVVCDDAATYYCLGGVSGGPYPFGGGTEVVVKG
notes: Rabbit monoclonal, produced as recombinant antibody in HEK-293 cells; VH 110, VL 111) and calls clone MKP1A07310 'the inventive antibody'; also called MKP1A7310; MKP-1A-73-10

Source: US20190211104A1 (Merck KGaA, published 2019)
